This passage reports abundance fitness results from the Human Domainome abundance scans (Beltran et al. 2025).

Sequences and labels used below:
B1: Far upstream element-binding protein 3, residues 75 to 150; numbered along this chain, Q96I24 (parent)
chain: RTVITEEFKVPDKMVGFIIGRGGEQISRIQAESGCKIQIASESSGIPERPCVLTGTPESIEQAKRLLGQIVDRCRN
B2: Storkhead-box protein 2, residues 64 to 141; numbered along this chain, Q9P2F5 (parent)
chain: SPISQSQFIPLGEILCLAISAMNSARKPVTQEALMEHLTTCFPGVPTPSQEILRHTLNTLVRERKIYPTPDGYFIVTP

± gives the uncertainty stated by the source.

In one data set the parent is B1. As to the kind of experiment: abundance fitness (aPCA) (normalised: wild type 0, dead -1); higher = more abundant; growth selection in yeast, the domain comes from the species named. Conditions: Homo sapiens.
Consider V71A, for which the abundance fitness is -0.117 ± 0.03. On the same count and under the same terms, for V71W the value was -0.175 ± 0.035; for V71M, -0.013 ± 0.04; for V71H, -0.21 ± 0.054. In the case of V71N, the abundance fitness is -0.072 ± 0.054. On the same count and under the same terms, for V71G the value was -0.105 ± 0.026; for V71Q, -0.048 ± 0.044. As to V71D, the abundance fitness is -0.159 ± 0.046.

Turning to V71S, the abundance fitness is -0.118 ± 0.037. As for V71T, the abundance fitness is -0.026 ± 0.042. The same measure, in the same setting: for V71L the value was -0.092 ± 0.034; for V71Y, -0.047 ± 0.054; for V71F, -0.099 ± 0.058. Consider V71P, for which the abundance fitness was -0.198 ± 0.043. As to V71E, the abundance fitness was -0.073 ± 0.034. With V71K, the abundance fitness is -0.132 ± 0.044.

For the variant Q69H, the abundance fitness was determined as 0.021 ± 0.059. Take Q69M: the abundance fitness was -0.03 ± 0.043. The same measure, in the same setting: then Q69C, with -0.076 ± 0.046; and Q69S, with -0.002 ± 0.031; and Q69F, with -0.181 ± 0.062. As to Q69A, the abundance fitness is -0.006 ± 0.032. For Q69R, the abundance fitness was 0.005 ± 0.029. Q69K: the abundance fitness is -0.046 ± 0.044. In the case of Q69P, the abundance fitness is -0.156 ± 0.039.

As to Q69G, the abundance fitness is -0.012 ± 0.03. For the variant Q69W, the abundance fitness is -0.283 ± 0.038.

Consider Q69E, for which the abundance fitness was determined as 0.025 ± 0.037. As for Q69V, the abundance fitness was -0.009 ± 0.031. Regarding Q69D, the abundance fitness was found to be 0.021 ± 0.049. Consider Q69I, for which the abundance fitness is 0.02 ± 0.062. Q69N: the abundance fitness was -0.059 ± 0.057.

Variants of B2 are the subject of the next data set. The description is as above. The note with it: Homo sapiens.
As to I14L, the abundance fitness was -0.035 ± 0.067. For I14F, the abundance fitness is -0.228 ± 0.092.

Turning to L15M, the abundance fitness was -0.049 ± 0.075.

Take L15N: the abundance fitness was -0.613 ± 0.32. Turning to M22Q, the abundance fitness was -0.226 ± 0.066. As for M22E, the abundance fitness was -0.719 ± 0.25.

As for Q5R, the abundance fitness is -0.068 ± 0.037.

P48H: the abundance fitness was -0.354 ± 0.065.

Turning to P48A, the abundance fitness is -0.186 ± 0.044. Same read-out and setting: then P48F, with -0.141 ± 0.072; and P48G, with -0.311 ± 0.034; and P48N, with -0.5 ± 0.099. With H55G, the abundance fitness was determined as 0.06 ± 0.035.

In the case of E51Q, the abundance fitness was -0.099 ± 0.071. For the variant E51D, the abundance fitness turned out to be 0.028 ± 0.11. The same measure, in the same setting: for S49H the value was -0.225 ± 0.077; for T56C, -0.056 ± 0.074; for N58D, -0.005 ± 0.078. Still for that read-out and setting: for P10S the value was -0.067 ± 0.047. Same read-out and setting: then P10C, with -0.136 ± 0.12; and P10M, with 0.048 ± 0.17; and P10L, with 0.085 ± 0.047. With P10W, the abundance fitness turned out to be 0.175 ± 0.076.

S4D: the abundance fitness is 0.104 ± 0.093. The same measure, in the same setting: then R54V, with -0.012 ± 0.1; and R54K, with -0.027 ± 0.3; and R54H, with -0.367 ± 0.14.

For the variant F8G, the abundance fitness is -0.103 ± 0.052. For F8E, the abundance fitness was -0.012 ± 0.082. In the case of E36R, the abundance fitness stood at 0.003 ± 0.039. With T30W, the abundance fitness is -0.043 ± 0.047. Consider T30P, for which the abundance fitness was -0.486 ± 0.058.

With T30C, the abundance fitness was -0.026 ± 0.058.

With A21K, the abundance fitness came out at 0.051 ± 0.046. Turning to T47E, the abundance fitness was -0.199 ± 0.05. In the case of T47H, the abundance fitness was -0.166 ± 0.12. Turning to T40G, the abundance fitness was -0.045 ± 0.042. On the same count and under the same terms, for C16I the value was -0.01 ± 0.1; for C16S, -0.091 ± 0.06; for C16R, -0.061 ± 0.051. Still for that read-out and setting: then C16D, with -0.353 ± 0.084; and I66V, with -0.041 ± 0.048. As to I66F, the abundance fitness is -0.937 ± 0.13. The same measure, in the same setting: for P68N the value was 0.009 ± 0.15; for P68D, -0.042 ± 0.14; for A18P, -0.887 ± 0.1. Consider A18Q, for which the abundance fitness was -0.26 ± 0.13. Consider V45R, for which the abundance fitness was -0.06 ± 0.03. As for V45M, the abundance fitness was -0.109 ± 0.06. For G44Y, the abundance fitness is -0.036 ± 0.12. Regarding G44D, the abundance fitness is 0.073 ± 0.12. In the case of E32M, the abundance fitness is -0.094 ± 0.081. Turning to I3F, the abundance fitness is -0.255 ± 0.084. For the variant L17I, the abundance fitness stood at 0.133 ± 0.2. In the case of T69I, the abundance fitness was -0.298 ± 0.15. For R62M, the abundance fitness was 0.045 ± 0.095. Regarding C41S, the abundance fitness stood at 0.021 ± 0.065. In the case of C41P, the abundance fitness was -0.534 ± 0.1. For C41H, the abundance fitness is -0.096 ± 0.15. Consider S20R, for which the abundance fitness is -0.025 ± 0.04. As to I52G, the abundance fitness is -0.083 ± 0.036. On the same count and under the same terms, for P43D the value was -0.119 ± 0.17. Regarding R26Y, the abundance fitness is -0.248 ± 0.11. In the case of R26L, the abundance fitness is -0.078 ± 0.044. As for R26G, the abundance fitness was -0.009 ± 0.037.

In the case of L57I, the abundance fitness was -0.04 ± 0.11.

For the variant P2W, the abundance fitness was -0.102 ± 0.07. As to P2S, the abundance fitness came out at 0.002 ± 0.051. P2E: the abundance fitness is -0.18 ± 0.08. Take P2I: the abundance fitness was -0.037 ± 0.14. Same read-out and setting: then D71I, with -0.313 ± 0.25; and V61D, with -0.186 ± 0.1; and Y67N, with -0.06 ± 0.096. For E13T, the abundance fitness is -0.016 ± 0.082.

Take E13K: the abundance fitness is -0.039 ± 0.1. As to S24K, the abundance fitness is 0.037 ± 0.073.

On to S24N, for which the abundance fitness amounted to 0.063 ± 0.12.

For the variant S24V, the abundance fitness was -0.007 ± 0.052. Same read-out and setting: then S24Y, with -0.093 ± 0.083; and L11E, with -0.325 ± 0.091. As to L11G, the abundance fitness is -0.277 ± 0.05. As for F74K, the abundance fitness came to 0.024 ± 0.053. With F74H, the abundance fitness was -0.248 ± 0.13. The same measure, in the same setting: for H37R the value was -0.144 ± 0.039; for H37A, -0.285 ± 0.053; for H37M, -0.357 ± 0.072. For H37S, the abundance fitness was -0.23 ± 0.045.

As for Y73I, the abundance fitness was -0.261 ± 0.16.

With Y73P, the abundance fitness was -0.149 ± 0.055.

As to A33H, the abundance fitness came out at 0.019 ± 0.079. For P70Q, the abundance fitness came out at 0.034 ± 0.065. As for P46Y, the abundance fitness is -0.402 ± 0.17.

For P46R, the abundance fitness was -0.157 ± 0.034. As for P46V, the abundance fitness was -0.086 ± 0.04. Regarding L34Q, the abundance fitness is -0.774 ± 0.11. As to F42P, the abundance fitness is -0.057 ± 0.1. For L38P, the abundance fitness was -0.998 ± 0.3.

As for L38F, the abundance fitness worked out at 0.014 ± 0.093. Turning to V29W, the abundance fitness is -0.363 ± 0.055. Still for that read-out and setting: for G72Y the value was -0.527 ± 0.23; for Q7C, -0.154 ± 0.1; for Q7V, -0.064 ± 0.041. Q7T: the abundance fitness is -0.02 ± 0.072. As for E63S, the abundance fitness was -0.018 ± 0.033. Consider E63H, for which the abundance fitness is -0.006 ± 0.075.

As to S1Y, the abundance fitness is -0.122 ± 0.093. On to S1W, for which the abundance fitness is -0.83 ± 0.12. In the case of Q50H, the abundance fitness was -0.022 ± 0.1.

With Q50D, the abundance fitness is 0.118 ± 0.15. Take N23H: the abundance fitness was -0.111 ± 0.079. N23E: the abundance fitness was -0.108 ± 0.051. Take N23L: the abundance fitness was -0.354 ± 0.041. On to N23K, for which the abundance fitness was -0.451 ± 0.084. Still for that read-out and setting: for Q31Y the value was -0.051 ± 0.075; for Q31H, -0.209 ± 0.07; for Q31T, 0.013 ± 0.058. Consider Q31L, for which the abundance fitness is -0.065 ± 0.033. On to K65A, for which the abundance fitness is -0.134 ± 0.054. With K65P, the abundance fitness was -0.967 ± 0.1. Turning to K65V, the abundance fitness was determined as 0 ± 0.048. On the same count and under the same terms, then K65W, with -0.209 ± 0.047; and K65M, with -0.171 ± 0.064; and K27F, with -0.182 ± 0.078. Still for that read-out and setting: for K27L the value was -0.12 ± 0.034.

With T59Q, the abundance fitness is -0.031 ± 0.052. Take I75A: the abundance fitness is -0.04 ± 0.057. Turning to I75C, the abundance fitness stood at 0.017 ± 0.082. As for R64D, the abundance fitness is -0.029 ± 0.09. With R64A, the abundance fitness is -0.029 ± 0.041.

As for I9P, the abundance fitness amounted to 0.046 ± 0.071. In the case of G12D, the abundance fitness is -0.127 ± 0.33.

As for L60V, the abundance fitness was -0.587 ± 0.052. Turning to L60N, the abundance fitness is -0.927 ± 0.17.

As for P28R, the abundance fitness is -0.054 ± 0.037. Take P28M: the abundance fitness was -0.005 ± 0.073.
